From PMC10397247

Experiments:
4H3120-AA = biological target: T1, 4H3120-AA; assay: two-hybrid library CCmax; details: mean of both orientations;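 also: natural log of median RNA to DNA barcode read ratio; higher means stronger binding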
T1 chain: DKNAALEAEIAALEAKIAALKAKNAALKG

4H2253-AA = biological target: T2, 4H2253-AA; assay: two-hybrid library CCmax; details: mean of both orientations;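 also: natural log of median RNA to DNA barcode read ratio; higher means stronger binding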
T2 chain: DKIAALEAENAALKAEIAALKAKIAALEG

4H2473-AA = biological target: T3, 4H2473-AA; assay: two-hybrid library CCmax; details: mean of both orientations;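 also: natural log of median RNA to DNA barcode read ratio; higher means stronger binding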
T3 chain: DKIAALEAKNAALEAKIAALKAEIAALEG

4H570-AA = biological target: T4, 4H570-AA; assay: two-hybrid library CCmax; details: mean of both orientations;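 also: natural log of median RNA to DNA barcode read ratio; higher means stronger binding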
T4 chain: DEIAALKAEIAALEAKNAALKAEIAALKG

4H745-AA = biological target: T5, 4H745-AA; assay: two-hybrid library CCmax; details: mean of both orientations;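 also: natural log of median RNA to DNA barcode read ratio; higher means stronger binding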
T5 chain: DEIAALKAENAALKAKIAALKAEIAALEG

4H3016-AA = biological target: T6, 4H3016-AA; assay: two-hybrid library CCmax; details: mean of both orientations;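 also: natural log of median RNA to DNA barcode read ratio; higher means stronger binding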
T6 chain: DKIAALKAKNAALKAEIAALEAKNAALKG

4H310-AA = biological target: T7, 4H310-AA; assay: two-hybrid library CCmax; details: mean of both orientations
T7 chain: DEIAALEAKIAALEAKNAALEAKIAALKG

4H3590-AA = biological target: T8, 4H3590-AA; assay: two-hybrid library CCmax; details: mean of both orientations
T8 chain: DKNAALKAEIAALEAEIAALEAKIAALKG

4H2725-AA = biological target: T9, 4H2725-AA; assay: two-hybrid library CCmax; details: mean of both orientations
T9 chain: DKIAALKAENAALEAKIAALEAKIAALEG

4H2438-AA = biological target: T10, 4H2438-AA; assay: two-hybrid library CCmax; details: mean of both orientations
T10 chain: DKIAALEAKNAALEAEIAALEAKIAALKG

4H94-AA = biological target: T11, 4H94-AA; assay: two-hybrid library CCmax; details: mean of both orientations
T11 chain: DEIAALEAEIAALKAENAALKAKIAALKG

4H909-AA = biological target: T12, 4H909-AA; assay: two-hybrid library CCmax; details: mean of both orientations
T12 chain: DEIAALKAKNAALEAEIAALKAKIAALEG

4H2389-AA = biological target: T13, 4H2389-AA; assay: two-hybrid library CCmax; details: mean of both orientations
T13 chain: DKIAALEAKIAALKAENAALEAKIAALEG

4H3165-AA = biological target: T14, 4H3165-AA; assay: two-hybrid library CCmax; details: mean of both orientations
T14 chain: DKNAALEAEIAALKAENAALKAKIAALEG

4H3410-AA = biological target: T15, 4H3410-AA; assay: two-hybrid library CCmax; details: mean of both orientations
T15 chain: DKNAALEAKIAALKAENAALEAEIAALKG

4H629-AA = biological target: T16, 4H629-AA; assay: two-hybrid library CCmax; details: mean of both orientations
T16 chain: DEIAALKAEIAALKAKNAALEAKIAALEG

4H2274-AA = biological target: T17, 4H2274-AA; assay: two-hybrid library CCmax; details: mean of both orientations
T17 chain: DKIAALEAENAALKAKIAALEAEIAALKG

4H3009-AA = biological target: T18, 4H3009-AA; assay: two-hybrid library CCmax; details: mean of both orientations
T18 chain: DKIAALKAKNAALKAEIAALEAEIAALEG

4H3130-AA = biological target: T19, 4H3130-AA; assay: two-hybrid library CCmax; details: mean of both orientations
T19 chain: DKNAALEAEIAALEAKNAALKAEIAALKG

4H458-AA = biological target: T20, 4H458-AA; assay: two-hybrid library CCmax; details: mean of both orientations
T20 chain: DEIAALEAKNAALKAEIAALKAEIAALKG

4H930-AA = biological target: T21, 4H930-AA; assay: two-hybrid library CCmax; details: mean of both orientations
T21 chain: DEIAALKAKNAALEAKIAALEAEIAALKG

4H3381-AA = biological target: T22, 4H3381-AA; assay: two-hybrid library CCmax; details: mean of both orientations
T22 chain: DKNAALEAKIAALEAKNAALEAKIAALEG

4H2865-AA = biological target: T23, 4H2865-AA; assay: two-hybrid library CCmax; details: mean of both orientations
T23 chain: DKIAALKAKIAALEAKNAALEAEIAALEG

4H2162-AA = biological target: T24, 4H2162-AA; assay: two-hybrid library CCmax
T24 chain: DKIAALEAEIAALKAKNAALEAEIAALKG

4H797-AA = biological target: T25, 4H797-AA; assay: two-hybrid library CCmax; details: mean of both orientations
T25 chain: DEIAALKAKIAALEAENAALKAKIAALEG

4H485-AA = biological target: T26, 4H485-AA; assay: two-hybrid library CCmax; details: mean of both orientations
T26 chain: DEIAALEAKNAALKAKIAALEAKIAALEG

4H2649-AA = biological target: T27, 4H2649-AA; assay: two-hybrid library CCmax; details: mean of both orientations
T27 chain: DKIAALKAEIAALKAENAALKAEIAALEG

4H3753-AA = biological target: T28, 4H3753-AA; assay: two-hybrid library CCmax; details: mean of both orientations
T28 chain: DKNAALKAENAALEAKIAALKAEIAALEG

4H710-AA = biological target: T29, 4H710-AA; assay: two-hybrid library CCmax; details: mean of both orientations
T29 chain: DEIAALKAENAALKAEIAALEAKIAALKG

4H2330-AA = biological target: T30, 4H2330-AA; assay: two-hybrid library CCmax; details: mean of both orientations
T30 chain: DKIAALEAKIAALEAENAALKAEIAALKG

4H3395-AA = biological target: T31, 4H3395-AA; assay: two-hybrid library CCmax; details: mean of both orientations
T31 chain: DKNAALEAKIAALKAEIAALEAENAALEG

4H3865-AA = biological target: T32, 4H3865-AA; assay: two-hybrid library CCmax; details: mean of both orientations
T32 chain: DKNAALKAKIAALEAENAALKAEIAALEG

4H891-AA = biological target: T33, 4H891-AA; assay: two-hybrid library CCmax; details: mean of both orientations
T33 chain: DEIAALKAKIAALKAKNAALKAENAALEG

4H3697-AA = biological target: T34, 4H3697-AA; assay: two-hybrid library CCmax; details: mean of both orientations
T34 chain: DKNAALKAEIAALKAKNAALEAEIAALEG

4H2698-AA = biological target: T35, 4H2698-AA; assay: two-hybrid library CCmax; details: mean of both orientations
T35 chain: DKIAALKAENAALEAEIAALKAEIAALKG

4H850-AA = biological target: T36, 4H850-AA; assay: two-hybrid library CCmax; details: mean of both orientations
T36 chain: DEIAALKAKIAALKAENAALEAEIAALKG

4H536-AA = biological target: T37, 4H536-AA; assay: two-hybrid library CCmax; details: mean of both orientations
T37 chain: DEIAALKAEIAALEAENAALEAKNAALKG

4H883-bA = biological target: T38, 4H883-bA; assay: two-hybrid library CCNG1
T38 chain: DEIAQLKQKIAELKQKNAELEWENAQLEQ

4H370-bA = biological target: T39, 4H370-bA; assay: two-hybrid library CCNG1
T39 chain: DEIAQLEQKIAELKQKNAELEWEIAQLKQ

4H462-bA = biological target: T40, 4H462-bA; assay: two-hybrid library CCNG1
T40 chain: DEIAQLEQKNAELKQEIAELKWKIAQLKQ

4H953-bA = biological target: T41, 4H953-bA; assay: two-hybrid library CCNG1
T41 chain: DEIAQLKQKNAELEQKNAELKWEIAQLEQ

4H918-bA = biological target: T42, 4H918-bA; assay: two-hybrid library CCNG1
T42 chain: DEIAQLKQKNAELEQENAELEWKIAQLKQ

4H3843-bA = biological target: T43, 4H3843-bA; assay: two-hybrid library CCNG1
T43 chain: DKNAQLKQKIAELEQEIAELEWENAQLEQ

4H607-bA = biological target: T44, 4H607-bA; assay: two-hybrid library CCNG1
T44 chain: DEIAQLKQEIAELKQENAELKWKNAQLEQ

4H568-bA = biological target: T45, 4H568-bA; assay: two-hybrid library CCNG1
T45 chain: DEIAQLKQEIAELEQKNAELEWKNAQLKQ

4H967-bA = biological target: T46, 4H967-bA; assay: two-hybrid library CCNG1
T46 chain: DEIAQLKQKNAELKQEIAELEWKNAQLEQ

4H3782-bA = biological target: T47, 4H3782-bA; assay: two-hybrid library CCNG1
T47 chain: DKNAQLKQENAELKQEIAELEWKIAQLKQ

4H4001-bA = biological target: T48, 4H4001-bA; assay: two-hybrid library CCNG1
T48 chain: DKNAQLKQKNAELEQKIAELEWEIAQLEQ

4H687-bA = biological target: T49, 4H687-bA; assay: two-hybrid library CCNG1
T49 chain: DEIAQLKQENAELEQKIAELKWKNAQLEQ

4H72-bA = biological target: T50, 4H72-bA; assay: two-hybrid library CCNG1
T50 chain: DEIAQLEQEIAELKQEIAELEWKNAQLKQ

4H797-bA = biological target: T51, 4H797-bA; assay: two-hybrid library CCNG1
T51 chain: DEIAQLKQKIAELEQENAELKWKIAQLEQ

**Q.** Which results are given for DKIAALEAEIAALKAKNAALEAEIAALKG [4H2162-AA]?
**A.** interaction score (4H3120-AA): -1.44; interaction score (4H2253-AA): -1.34; interaction score (4H2473-AA): -1.53; interaction score (4H570-AA): 0.778; interaction score (4H745-AA): -0.859; interaction score (4H3016-AA): -2.12; interaction score (4H310-AA): -0.523; interaction score (4H3590-AA): -0.841; interaction score (4H2725-AA): -1.72; interaction score (4H2438-AA): -0.363; interaction score (4H94-AA): -0.0378; interaction score (4H909-AA): -1.18; interaction score (4H2389-AA): -0.128; interaction score (4H3165-AA): -0.865; interaction score (4H3410-AA): -0.231; interaction score (4H629-AA): -1.01; interaction score (4H2274-AA): -0.925; interaction score (4H3009-AA): -1.18; interaction score (4H3130-AA): -0.375; interaction score (4H458-AA): -0.816; interaction score (4H930-AA): -1.36; interaction score (4H3381-AA): -1.58; interaction score (4H2865-AA): -0.262; interaction score (4H2162-AA): 1.73; interaction score (4H797-AA): -1.49; interaction score (4H485-AA): -1.06; interaction score (4H2649-AA): -0.344; interaction score (4H3753-AA): -1.93; interaction score (4H710-AA): -1.09; interaction score (4H2330-AA): -1.04; interaction score (4H3395-AA): -0.899; interaction score (4H3865-AA): -1.59; interaction score (4H891-AA): -1.78; interaction score (4H3697-AA): -0.752; interaction score (4H2698-AA): -1.79; interaction score (4H850-AA): 0.439; interaction score (4H536-AA): -1.2

**Q.** How did the interaction score (4H883-bA) turn out when DEIAQLEQKIAELKQKNAELEWEIAQLKQ [4H370-bA] was run?
**A.** -0.545

**Q.** And the interaction score (4H370-bA)?
**A.** 1.12

**Q.** What about the interaction score (4H462-bA) of the same binder?
**A.** 1.39

**Q.** What about the interaction score (4H953-bA) of the same binder?
**A.** -1.39

**Q.** What about the interaction score (4H918-bA) of the same binder?
**A.** -0.552

**Q.** And the interaction score (4H3843-bA)?
**A.** -0.261

**Q.** What about the interaction score (4H607-bA) of the same binder?
**A.** -0.647

**Q.** And the interaction score (4H568-bA)?
**A.** 1.81

**Q.** What about the interaction score (4H967-bA) of the same binder?
**A.** -0.217

**Q.** What about the interaction score (4H3782-bA) of the same binder?
**A.** 0.864

**Q.** And the interaction score (4H4001-bA)?
**A.** -0.375

**Q.** And the interaction score (4H687-bA)?
**A.** -0.346

**Q.** And the interaction score (4H72-bA)?
**A.** 0.634

**Q.** What about the interaction score (4H797-bA) of the same binder?
**A.** -0.315
